Results from US20260116996A1 (REGENTS OF THE UNIVERSITY OF MINNESOTA, published 2026).

T1: human serpinB5 (human, UniProt P36952 1-375)
T1 construct: Luminex antigen captured from a 293 cell lysate; not shown: V5-His tag of the pcDNA3.1 Directional V5-His-TOPO vector
T1 sequence (looked up): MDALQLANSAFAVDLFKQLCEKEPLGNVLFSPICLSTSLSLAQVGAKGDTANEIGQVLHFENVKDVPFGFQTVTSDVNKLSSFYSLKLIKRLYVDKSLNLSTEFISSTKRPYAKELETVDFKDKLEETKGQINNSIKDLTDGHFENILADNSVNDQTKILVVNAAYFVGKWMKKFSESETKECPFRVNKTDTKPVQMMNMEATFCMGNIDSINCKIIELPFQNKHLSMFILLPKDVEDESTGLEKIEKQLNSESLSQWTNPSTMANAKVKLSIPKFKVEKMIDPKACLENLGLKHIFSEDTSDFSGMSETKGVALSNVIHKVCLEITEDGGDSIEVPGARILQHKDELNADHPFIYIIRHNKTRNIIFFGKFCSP

T2: human serpinB7 (human, UniProt O75635 1-380)
T2 construct: Luminex antigen captured from a 293 cell lysate; not shown: V5-His tag of the pcDNA3.1 Directional V5-His-TOPO vector
T2 sequence (looked up): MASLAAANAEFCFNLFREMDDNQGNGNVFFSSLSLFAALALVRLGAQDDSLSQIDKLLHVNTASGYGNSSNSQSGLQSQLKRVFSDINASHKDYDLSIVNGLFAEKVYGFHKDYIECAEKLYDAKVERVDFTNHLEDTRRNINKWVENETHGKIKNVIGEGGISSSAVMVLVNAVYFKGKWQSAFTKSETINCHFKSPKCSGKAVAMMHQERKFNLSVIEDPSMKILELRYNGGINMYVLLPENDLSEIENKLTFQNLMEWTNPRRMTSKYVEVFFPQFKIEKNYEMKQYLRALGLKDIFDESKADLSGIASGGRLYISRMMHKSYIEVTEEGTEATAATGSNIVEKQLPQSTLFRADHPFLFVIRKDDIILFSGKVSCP

T3: human serpinB8 (human, UniProt P50452 1-374)
T3 construct: Luminex antigen captured from a 293 cell lysate; not shown: V5-His tag of the pcDNA3.1 Directional V5-His-TOPO vector
T3 sequence (looked up): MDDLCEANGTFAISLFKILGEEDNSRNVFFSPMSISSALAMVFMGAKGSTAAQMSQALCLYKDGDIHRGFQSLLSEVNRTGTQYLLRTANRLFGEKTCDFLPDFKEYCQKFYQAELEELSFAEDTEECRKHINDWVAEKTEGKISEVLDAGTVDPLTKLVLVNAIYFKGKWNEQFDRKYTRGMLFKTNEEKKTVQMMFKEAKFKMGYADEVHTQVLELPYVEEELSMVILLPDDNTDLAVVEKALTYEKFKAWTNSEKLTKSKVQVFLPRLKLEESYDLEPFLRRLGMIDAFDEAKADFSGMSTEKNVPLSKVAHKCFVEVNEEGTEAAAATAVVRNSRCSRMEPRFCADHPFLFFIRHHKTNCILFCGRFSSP

T4: human serpinB11 (human, UniProt Q96P15 1-392)
T4 construct: Luminex antigen captured from a 293 cell lysate; not shown: V5-His tag of the pcDNA3.1 Directional V5-His-TOPO vector
T4 sequence (looked up): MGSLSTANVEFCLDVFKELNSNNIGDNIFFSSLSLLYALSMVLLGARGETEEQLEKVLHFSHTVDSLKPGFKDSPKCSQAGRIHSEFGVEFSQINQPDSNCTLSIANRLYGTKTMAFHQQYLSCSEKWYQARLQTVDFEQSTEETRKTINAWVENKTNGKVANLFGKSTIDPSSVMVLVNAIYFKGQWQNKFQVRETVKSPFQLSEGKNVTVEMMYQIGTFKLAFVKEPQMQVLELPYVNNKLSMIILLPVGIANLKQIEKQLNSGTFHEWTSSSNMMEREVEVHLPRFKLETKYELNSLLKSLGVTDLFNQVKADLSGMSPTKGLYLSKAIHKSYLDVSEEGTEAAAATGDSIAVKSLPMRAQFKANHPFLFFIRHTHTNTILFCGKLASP

T5: recombinant human serpinB13 (human, UniProt Q9UIV8 1-391)
T5 construct: The baculovirus-made protein (GenScript) was used for panning, ELISA and the cathepsin L assay; In the Luminex assay human serpinB13 was V5-His tagged and came from 293 cell lysates; also called rhB13
T5 sequence (looked up): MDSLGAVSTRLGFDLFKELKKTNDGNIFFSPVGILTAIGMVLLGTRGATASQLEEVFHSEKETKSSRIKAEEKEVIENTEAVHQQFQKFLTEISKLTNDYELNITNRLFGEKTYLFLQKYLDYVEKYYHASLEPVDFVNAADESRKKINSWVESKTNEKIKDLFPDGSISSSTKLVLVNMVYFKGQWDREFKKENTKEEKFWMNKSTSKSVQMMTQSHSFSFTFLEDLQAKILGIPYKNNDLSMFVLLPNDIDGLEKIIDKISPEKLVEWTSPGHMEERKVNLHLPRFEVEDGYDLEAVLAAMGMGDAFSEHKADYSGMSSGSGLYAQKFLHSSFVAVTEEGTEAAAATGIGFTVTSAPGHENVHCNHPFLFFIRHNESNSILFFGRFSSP

B1: recombinant fully human anti-serpinB13 antibody Clone 3 (antibody, human IgG1, kappa, V domains shown)
VH: QVQLQQWGAGLLKPSETLSLTCAVYGGSFSGYYWSWIRQPPGKGLEWIGEINHSGSTNYNPSLKSRVTISVDTSKNQFSLKLSSVTAADTAVYYCARRYCSGGSCYLVGTGSELDYWGQGTLVTVSS
VL: DIQMTQSPSTLSASVGDRVTITCRASQSISSWLAWYQQKPGKAPKLLIYKASSLEIGVPSRFSGSGYGTEFTLTISSLQPDDFATYYCLQYSTHSTFGQGTRVEIKR
notes: also called mAb3; CLONE3-H(m1) / CLONE3-L(m1)
B2: recombinant fully human anti-serpinB13 antibody Clone 2 (antibody, human IgG1, kappa, V domains shown)
VH: QMQLVQSGGGVVRPGGSLRLSCAASGFTFDDYGMSWVRQAPGKGLEWVSGINWNGGSTGYADSVKGRFTISRDNAKNSLYLQMNSLRAEDTALYYCARESSMTTVTTYLLREVGVGLDFDYWGQGTLVTVSS
VL: ETTLTQSPGTLSLSPGERATLSCRASQTVSGSYLAWYQQKPGQPPRLLIYGASSRATGIPDRFSGSGSGTDFTLTISRLEPEDFAVYYCQDYGSSRTFGQGTKVELKR
notes: also called mAb2; CLONE2-H(m1) / CLONE2-L(m1)
B3: recombinant fully human anti-serpinB13 antibody Clone 1 (antibody, human IgG1, kappa, V domains shown)
VH: QVQLQESGGGVVQPGRSLRLSCAASGFTFSSYGMHWVRQAPGKGLEWVAVISYDGSNKYYADSVKGRFTISRDNSKNTLYLQMNSLRAEDTAVYYCARDLGAVIAVAGTSTPYNWFDPWGQGTLVTVSS
VL: DVVMTQSPLSLPVTPGEPASISCRSRQSLLHSNGHNYLGWYLQKPGQSPQLLIYLASIRASGIPDRFSGSGSGTDFTLKISRVEAEDVGVYYCMQALQTPYTFGQGTKLEIKR
notes: also called mAb1; mAbs1

Each binder was assayed against T1, human serpinB5 (assay: Luminex bead assay, beads coated with human serpinB5, background (Gfp and Scgn beads) subtracted).
Procedure: (§1) The latter was determined as the average antibody binding to Luminex beads coated with Gfp and Scgn control antigens. Similar data were obtained for antigen binding of Fab fragments of these antibodies (data not shown).
(§2) Luminex assay. Luminex-based technology was used to measure serpinB13 AA in human samples. Initially, the Luminex beads were precoated with serpinB13, Gfp and Scgn, using precleared lysates of 293 cells that had been transfected with individual cDNAs. Biotinylated mouse anti-human K and 2 chain mAbs (BD Biosciences) (dilution 1:300) and streptavidin (Invitrogen) (dilution 1:200) were used as secondary reagents to measure human serum binding activity to individual antigens. The data were expressed as fluorescence intensity (F.I.) due to serum binding activity in the presence of beads precoated with serpinB13 and after subtracting the average F.I. due to serum binding activity in the presence of beads precoated with control proteins, Gfp and Scgn (e.g. F.I.^B13-[F.I.^GFP+F.I.^Segn]/2). The samples were evaluated based on the level of F.I. and the degree of inhibition of binding to serpin-B13 coated beads with soluble serpinB13 (2.5 μg/mL), compared with the bovine serum albumin (BSA). […] All samples were run blind on three independent occasions. Subjects with serum samples that produced a positive results three times were considered positive. Subjects with serum samples that produced a negative result on at least one occasion were considered negative.
(§3) To determine whether anti-serpin activity is specific, binding of three human recombinant antibodies to serpinB13 was examined for potential cross-reactivity with other clade B serpins. Binding to the beads conjugated with Gfp and Scgn was used to subtract the background and the assay was developed using the same reagents as those described above for measuring serpinB13 AA in serum samples.

binding result	Binder
no binding (tested: 1.0 µg/mL)	B1
no binding (tested: 1.0 µg/mL)	B2
no binding (tested: 1.0 µg/mL)	B3

What follows are binders tested against T2, human serpinB7 (assay: Luminex bead assay, beads coated with human serpinB7, background (Gfp and Scgn beads) subtracted).
Procedure: as §1, §2, §3

binding result	Binder
no binding (tested: 1.0 µg/mL)	B1
no binding (tested: 1.0 µg/mL)	B2
no binding (tested: 1.0 µg/mL)	B3

The binders below were run against T3, human serpinB8 (assay: Luminex bead assay, beads coated with human serpinB8, background (Gfp and Scgn beads) subtracted).
Procedure: as §1, §2, §3

binding result	Binder
no binding (tested: 1.0 µg/mL)	B1
no binding (tested: 1.0 µg/mL)	B2
no binding (tested: 1.0 µg/mL)	B3

The binders below were run against T4, human serpinB11 (assay: Luminex bead assay, beads coated with human serpinB11, background (Gfp and Scgn beads) subtracted).
Procedure: as §1, §2, §3

binding result	Binder
no binding (tested: 1.0 µg/mL)	B1
no binding (tested: 1.0 µg/mL)	B2
no binding (tested: 1.0 µg/mL)	B3

The binders below were run against T5, recombinant human serpinB13 (assay: Luminex bead assay, beads coated with human serpinB13, antibody at 1.0 µg/mL, background (mean of Gfp and Scgn beads) subtracted).
Procedure: as §1, §2, §3

binding result	Binder
binds	B1
binds	B2
binds	B3
